± gives the standard error. For some assays here: Variants at the floor of the assay were thinned out.
B1: glmS ribozyme (parent)
chain: AUAAAAGCGCCAGAACUACAGAAAUGUAGUUGACGAGGAGGAGGUUUAUCGAAUUUUCGGCGGAUGCCUCCAAA

Tests used:
Settings in all cases: with glucosamine-6-phosphate
glucosamine-6-phosphate [1] = variants of: B1; test: kcat; higher = faster cleavage; RNA array
Procedure, shortened: (§1)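 A hybridised Cy3 probe tracked barcoded ribozyme variants, transcribed in situ by E. coli RNA polymerase on sequenced MiSeq chips, at 37 °C. The variants received 40 μM to 10 mM glucosamine-6-phosphate in HEPES/KCl/Mg(OAc)2 buffer. kobs came from decay fits and kcat and KM from weighted Michaelis–Menten fits.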

glucosamine-6-phosphate [2] = variants of: B1; test: self-cleavage kobs at 10000 uM GlcN6P; higher = faster cleavage; RNA array
Procedure, shortened: as §1

glucosamine-6-phosphate [3] = variants of: B1; test: self-cleavage kobs at 160 uM GlcN6P; higher = faster cleavage; RNA array
Procedure, shortened: as §1

glucosamine-6-phosphate [4] = variants of: B1; test: self-cleavage kobs at 2500 uM GlcN6P; higher = faster cleavage; RNA array
Procedure, shortened: as §1

glucosamine-6-phosphate [5] = variants of: B1; test: self-cleavage kobs at 40 uM GlcN6P; higher = faster cleavage; RNA array
Procedure, shortened: as §1

glucosamine-6-phosphate [6] = variants of: B1; test: KM; higher = weaker cofactor use; RNA array
Procedure, shortened: as §1

glucosamine-6-phosphate [7] = variants of: B1; test: self-cleavage kobs at 640 uM GlcN6P; higher = faster cleavage; RNA array
Procedure, shortened: as §1

| Variant | kcat (glucosamine-6-phosphate [1]) [s⁻¹] | self-cleavage kobs at 10000 uM GlcN6P (glucosamine-6-phosphate [2]) [s⁻¹] | self-cleavage kobs at 160 uM GlcN6P (glucosamine-6-phosphate [3]) [s⁻¹] | self-cleavage kobs at 2500 uM GlcN6P (glucosamine-6-phosphate [4]) [s⁻¹] | self-cleavage kobs at 40 uM GlcN6P (glucosamine-6-phosphate [5]) [s⁻¹] | KM (glucosamine-6-phosphate [6]) [µM] | self-cleavage kobs at 640 uM GlcN6P (glucosamine-6-phosphate [7]) [s⁻¹] |
| --- | --- | --- | --- | --- | --- | --- | --- |
| C10A U57C C61U | < 1e-05 | < 1e-05 | – | – | – | – | – |
| C10G C50A C71U | 1.87e-05 ± 3.4e-06 | < 1e-05 | – | – | – | – | – |
| C11G C16U | < 1e-05 | – | < 1e-05 | – | – | – | – |
| C11A A15C | 7.9e-05 ± 2.8e-05 | 5.67e-05 ± 2.2e-05 | – | 8.45e-05 ± 1.9e-05 | – | – | – |
| C11A G13A | < 1e-05 | – | – | – | < 1e-05 | – | – |
| C11U G37A | 7.88e-05 ± 6.9e-07 | 7.12e-05 ± 8.2e-06 | – | 5.51e-05 ± 9.5e-06 | – | 1070 ± 36 | 2.98e-05 ± 9.1e-06 |
| C10G C67A | 2.45e-05 ± 7.2e-06 | – | – | – | – | – | – |
| C11A A15G C16A G29U | 0.000222 ± 4.3e-05 | 0.000192 ± 3.5e-05 | – | 0.000102 ± 2.4e-05 | – | 2210 ± 1100 | 6.91e-05 ± 2.4e-05 |
| G7A A53U | 2.79e-05 ± 1.1e-05 | – | – | – | – | – | – |
| A6U A52G | < 1e-05 | – | < 1e-05 | – | – | – | < 1e-05 |
| A6U A52U | < 1e-05 | < 1e-05 | < 1e-05 | – | – | – | – |
| A6U C61G | < 1e-05 | – | < 1e-05 | – | – | – | < 1e-05 |
| C10A G59A C68G U69C | 3.77e-05 ± 1.1e-05 | – | – | – | – | – | – |
| C8U C11U C34G A36U | 1.07e-05 ± 9.9e-07 | – | < 1e-05 | – | – | – | – |
| C11A C34G G60U A64G | < 1e-05 | – | – | – | < 1e-05 | – | < 1e-05 |
| A6U U46C | 2.4e-05 ± 7.8e-07 | – | < 1e-05 | – | – | 2710 ± 290 | – |
| C10A U47A U57A C70U | 3.44e-05 ± 1.3e-05 | – | – | – | – | – | – |
| C10U A64G | 3.72e-05 ± 4.4e-06 | 3.21e-05 ± 5.8e-06 | – | 3.75e-05 ± 5.1e-06 | – | – | – |
| C8A U49C | < 1e-05 | – | – | < 1e-05 | – | – | < 1e-05 |
| A6U G13U | < 1e-05 | – | – | – | < 1e-05 | – | < 1e-05 |
| C10A C61A | 2.22e-05 ± 9.1e-06 | – | – | – | < 1e-05 | – | – |
| C10U A53U G59C C68G | < 1e-05 | – | – | – | < 1e-05 | – | – |

| Variant | kcat (glucosamine-6-phosphate [1]) [s⁻¹] | self-cleavage kobs at 10000 uM GlcN6P (glucosamine-6-phosphate [2]) [s⁻¹] | self-cleavage kobs at 160 uM GlcN6P (glucosamine-6-phosphate [3]) [s⁻¹] | self-cleavage kobs at 2500 uM GlcN6P (glucosamine-6-phosphate [4]) [s⁻¹] | self-cleavage kobs at 40 uM GlcN6P (glucosamine-6-phosphate [5]) [s⁻¹] | KM (glucosamine-6-phosphate [6]) [µM] | self-cleavage kobs at 640 uM GlcN6P (glucosamine-6-phosphate [7]) [s⁻¹] |
| --- | --- | --- | --- | --- | --- | --- | --- |
| C10A U57G | < 1e-05 | – | – | – | < 1e-05 | – | – |
| C11G A33U U54G C67A C71U | 1.15e-05 ± 1.8e-06 | – | – | – | – | – | – |
| A6U A14U | 4.98e-05 ± 1.9e-06 | 4.79e-05 ± 6.3e-06 | – | 4.51e-05 ± 1.4e-05 | – | 310 ± 92 | 3.6e-05 ± 1.2e-05 |
| A6G U65A | 7.49e-05 ± 1.1e-05 | 6.05e-05 ± 9.8e-06 | – | 4.41e-05 ± 1.2e-05 | – | – | – |
| G9A U31A | 2.13e-05 ± 6.3e-07 | – | < 1e-05 | – | < 1e-05 | – | < 1e-05 |
| G9U G59A | < 1e-05 | – | – | < 1e-05 | < 1e-05 | – | – |
| A6U C67A | 7.39e-05 ± 6.8e-06 | 7.43e-05 ± 7.2e-06 | – | 5.62e-05 ± 1.1e-05 | – | – | 6.68e-05 ± 1.7e-05 |
| C11G G63A C68U | < 1e-05 | – | – | – | – | – | – |
| A6U G35U G38C A53U A64G | < 1e-05 | – | < 1e-05 | – | – | – | – |
| C8G U57C | < 1e-05 | < 1e-05 | – | < 1e-05 | < 1e-05 | – | < 1e-05 |
| C10U G32U | 4.97e-05 ± 3.1e-06 | 4.67e-05 ± 6.1e-06 | < 1e-05 | 5.05e-05 ± 1.2e-05 | – | – | – |
| C10U C68G C70U | 7.35e-05 ± 2.9e-05 | – | 3.3e-05 ± 1.5e-05 | 5.98e-05 ± 1.4e-05 | – | – | 0.00013 ± 2.8e-05 |
| A6G U54A | 0.000561 ± 5.2e-05 | 0.000476 ± 7.7e-05 | – | 0.000387 ± 0.00011 | – | 1600 ± 440 | 0.000143 ± 5.7e-05 |
| C11G G37U | 1.74e-05 ± 6.6e-06 | < 1e-05 | – | < 1e-05 | < 1e-05 | – | – |
| C10A C68A | 1.98e-05 ± 3.8e-06 | – | – | – | – | – | – |
| A6U C70U | 0.000253 ± 4.2e-05 | 0.000197 ± 2.7e-05 | – | 0.00021 ± 2.2e-05 | – | 1200 ± 440 | 8.14e-05 ± 9.8e-06 |
| C11U G29A | 0.000628 ± 0.00013 | 0.000474 ± 5.6e-05 | – | 0.000194 ± 3e-05 | – | 4190 ± 1400 | 9.17e-05 ± 1.1e-05 |
| G9U A33U | < 1e-05 | < 1e-05 | < 1e-05 | – | – | – | < 1e-05 |
| C10U U31A | 2.74e-05 ± 1e-06 | – | – | – | – | 5120 ± 380 | – |
| C11A U30A | 0.000318 ± 4.7e-05 | 0.000288 ± 4.4e-05 | – | 0.000146 ± 3.4e-05 | – | 1940 ± 600 | 8.58e-05 ± 1.7e-05 |
| C10A U31G | < 1e-05 | – | – | < 1e-05 | – | – | < 1e-05 |
| C11A G59U | 0.0133 ± 0.0031 | 0.0105 ± 0.0013 | 0.000683 ± 8.7e-05 | 0.00743 ± 0.0012 | 0.000273 ± 2.8e-05 | 2310 ± 700 | 0.00335 ± 0.00043 |
